Laboratory results as given in US20230151072A1 (XILIO DEVELOPMENT, published 2023).

Molecular target: T1, CD122-Fc (UniProt P14784 27-240, limits assumed)
T1 construct: Analyte flowed over the chip in SPR at 500, 250, 125, 62.5 and 31.25 nM; also called Fc-CD122; IL-2Rbeta
T1 sequence (looked up): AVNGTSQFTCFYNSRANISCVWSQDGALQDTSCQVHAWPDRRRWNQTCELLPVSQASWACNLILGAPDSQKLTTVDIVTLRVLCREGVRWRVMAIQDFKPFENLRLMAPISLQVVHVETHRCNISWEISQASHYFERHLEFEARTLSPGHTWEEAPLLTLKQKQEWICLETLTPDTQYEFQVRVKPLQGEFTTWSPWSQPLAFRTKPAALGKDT
Assay: SPR, protease-cleaved construct amine-coupled on chip, CD122-Fc flowed
Procedure: For SPR studies testing binding of masked and non-masked IL-2 polypeptide constructs, Reichert Carboxymethyl Dextran Hydrogel Surface Sensor Chips were coated and immobilized with the construct of interest (e.g., a masked IL-2 polypeptide construct or non-masked IL-2 polypeptide construct) at 30 ug/ml in 10 mM Sodium Acetate, pH 5.0 via amine coupling with EDC and NHS. […] Using a Reichert 4Channel SPR, dilutions of CD25 or CD122 were flowed over the clips with the immobilized construct to determine the on rate at 25 degrees C. At equilibrium (approximately 3 minutes), the flow buffer was changed to PBST, to determine the off rates over 6 minutes. Between each run the chip was regenerated with 10 mM glycine, pH 2.0.
For some structures, when applicable, the KD was determined for the construct with or without having been previously cleaved by a protease.

- Kd: 0.175 µM
B1: AK168 after protease cleavage (ligand)
chain: LYHPSGPAPTSSSTKKTQLQLEHLLLDLQMILNGINNYKNPKLTAMLTAKFAMPKKATELKHLQCLEEALKPLEEVLNLAQSKNFHLRPRDLISNINVIVLELKGSETTFMCEYADETATIVEFLNRWITFAQSIISTLT
notes: also called AK168 Cleavage Product
